The target in this assay is T1, recombinant HIV-1 Nef (SF2) with C-terminal hexahistidine tag (HIV-1 (SF2), UniProt P03407).
T1 construct: also called Nef protein; Nef-Sepharose
Kind of assay: SPR; in vitro; estimate of the affinity; who was immobilised and the conditions are not told in the text (Supplementary Fig. 5). To be noted: both partners purified.

T1 sequence (P03407 whole entry): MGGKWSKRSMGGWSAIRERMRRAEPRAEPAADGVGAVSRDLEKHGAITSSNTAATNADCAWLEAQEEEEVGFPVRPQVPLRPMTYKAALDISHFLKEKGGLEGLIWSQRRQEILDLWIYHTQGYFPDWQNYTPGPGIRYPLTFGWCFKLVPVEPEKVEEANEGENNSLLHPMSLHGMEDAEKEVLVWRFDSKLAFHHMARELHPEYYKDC

B1: recombinant human GABARAP (natural protein)
chain: MKFVYKEEHPFEKRRSEGEKIRKKYPDRVPVIVEKAPKARIGDLDKKKYLVPSDLTVGQFYFLIRKRIHLRAEDALFFFVNNVIPPTSATMGQLYQEHHEEDFFLYIAYSDESVYGL
notes: also called 15N-GABARAP; [U-15N]-GABARAP
As to B1, the Kd (usually the equilibrium constant for the complex coming apart) was around 20 µM.

(Values after PMC5519724, “Direct binding to GABARAP family members is essential for HIV-1 Nef plasma membrane localization” (Scientific Reports, 2017).)
